Test: yeast display, Sf9 membrane polyspecificity reagent, FACS + sequencing; frameworks hold sequencing errors
Procedure, shortened: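 Sorting gates, low and high (top ~1%), were placed on anti-HA fluorescence to track expression and on streptavidin fluorescence to track reagent binding. A clone's polyreactivity label is taken from the gate it came out of. The reagent was 10% biotinylated, detergent-solubilized Sf9 membrane, applied for 1 hour at 4 °C to galactose-induced yeast display cells.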

Row | Sequence | polyreactivity (PSR sort gate)
1 | QVQLVESGGGLVQAGGSLRLSCAASGITFRTYAMGWYRQAPGKERELVAAISSSGGSTYYADSVKGRFTISRDNAKNTVYLQMNSLKPADTAVYYCAAEWIADLSSPVWYDYWGQGTQVTVSS | high polyreactivity
2 | QFQLVETVGGLVQAGGSLRLSCAASGFTYKSYAMGWYCQAPVKERELVASISRRGGSTYYADSVKGRFTISRDNAKNNVYLQMNSLKPEDTAVYYCNKYFRYRGDYDYWGQGTQVTVSS | high polyreactivity
3 | QVQLVESGGGLVQAGGSLRLSCAASGRTFRANAMGWYRQAPGKERELVAAISQRGGNTYYADSVKGRFTISRDNAKNTVYLQMNSLKPEDTAVYYCAADITTYRRGRYEYEYWGQGTQVTVSS | high polyreactivity
4 | QVQLVESVGGLVQAGASLRLSCAASGSTFDYYAMGSYRQAPGKERELVAAISRTGGRTYYADSVKGRFTISRDNAKNTVYLQMNSLKPEDTAVYYCNAVTRIGGGDYDYWGQGTQVTVSS | low polyreactivity
5 | QVHLVESGGGLVQAGGSLRLSCAASGITFHGYAMGWYRQAPGKERELVAAISDSGSSTYYADSVKGRFTISRDNAKNTVYLQMNSLKPEDTAVYYCAAVSGFYDQYDYWGQGTQVTVSS | low polyreactivity
6 | QVQLVESGGGLVQAGGSLRLSCAASGRIFVKYVMGWYRQAPGKERELVAAISSRGGSTYYADSVKGRFTSSRDNAKNTVYLQMNSLKPEDTAVYYCNKAFTARDDYWGQGTQVTVSS | high polyreactivity
7 | QVQLVESGGGLVQAGGSLRLSCAASGRTFAWNAMGWYRQAPRKERELVARIRSSGSTYYADSVKGRFTISRDNAKNTVYLQMNSLKPVDTAVYFCAADIRFWYGYYYWGQGTQVTVSS | high polyreactivity
8 | QVQLVESGGGLVQAGGSLRLSCAASGFIFASNAMGWYRQAPGKERELVAAINSSGGSTYYADSVKGRFTISRDNAKNTVYLQMNSLKPEDTAVYYCAADVIGDLRWYRDEYWGHGTQVTVSS | low polyreactivity
9 | QVQLVESGGGLVQAGGSLRLSCAASGRIFAQYAMGWYRQAPGKERELVADISSGVRTNADSVKGRFTISRDNAKNSVYLQMNSLKPEDTAVSYCNAYYIIFTRNDYWGQGTQVTVSS | low polyreactivity
10 | QVQLVETGGGLVQAGGSLRLSCAASGGSFTYNALGWDRQSPGKERALVAAITDSGGSTFADSVKGRFTISRDIAKNNVYLQMNSLKPEDTAVYYCAAGDGDTGSMYLRKLSDYWGQGTQVTVSS | low polyreactivity
11 | QVQLVESGGGLVQAGGSLRLSCAASGRIFYTNAMGWYRPAPGKERELVAAITRSGGRTYYADSVKGRFTISRDNAKNTVYLQMNSLKPEDTGVYYCAKVGYGHTGMGYWGQGTQVTVSS | high polyreactivity
12 | QVQLVESGGGLVQAGGSLRLSCAASGSIFGFNAMGWYSQAPGKEREMVAAINNGGSTNYADSVKGRFTISRDNAKNTVYLQMNSLKPEDTAVYYCAAVRFRPRRNEYWGQGTQVTVSS | high polyreactivity
13 | QVQLVESGGGLVQAGGSLRLSCDASGRIFSENAMGWYRQAPGKERELVDAITGNGGDTYYADSVKGRFTISRDNAKNTVYLQMNSLKPEDTAVYYCAAVTGGLGGDYWGQGTQVTVSS | low polyreactivity
14 | QVQLVESGGGLVQAGGSRRLRCAASGRTFWTYAMGWYRQAPGKEREFVAAISYSGSSTYADSVKGRFTISRDNATNTVYLQMKSLKPEDTAVYFCAAYLYTAVVAYGYVSWGQGTQVTVSS | low polyreactivity
15 | QVQLVESGGGLVQAGGSLRLSCAASGSTFQYYDMGWYRQAPGKERELVASITGSGDSTYYADSVKGRFTISRDNAKNTVYLQMNSLKPEDSAVYYCAAQNTWSGDYDYWGQGTQVTVSS | low polyreactivity
16 | QVQLVEPGGGLVQAGGSLRLSCAASGRTFYRYAMGWYRQAPGKERELVAAITWSGGRTYYADSVKGRFTMSRDYAKNTVYLQMNSLKPEDTAVYYCAADNSYRGYHSPYDYWGQGTQVTVSS | low polyreactivity
17 | QVQLVESGGGLVQAGGSLRLSCAASGNTFYAYTMGLYIQAPGKERELVAAISSDGSTNYADSVKGRFTISRDNAKNTVYLQMNSLKPEDTAVYYCAVTLEVSTVRDYDYWGQGTQVTVSS | low polyreactivity
18 | QVQLVESGGGLVQAGGSLRLSCAASGRTFFWYAMGWYRQAPGKEREFVADINSRGTSTYADSVKGRFTISRDNAKNTVYLQMNSLKPDDTAVYYCAAYRGHLKRYYYWGQGTQVTVSS | high polyreactivity
19 | QVQLVESGGGLVQAGGSLRLSCAASGSIFYVNGMGWYRQAPGKERELVARITLSGTSTYYADSVKGRFTISRDNAKNTVYLQRNSLKPEDPAVYYCAAPYFTYGQDEDEYWGQGTQGTVSS | low polyreactivity
20 | QVQLVESGGGLVQAGGSLRLSCAASGCIFFQYAMGWYIQAPGKERELVAAISGSGVTTYYADSVKGRFTISRDNAKNTVYLQMNSLKPEDTAVYYCNAALRWKYDWGQGTQVTVSS | low polyreactivity
21 | QVQLVESGGGLVQAGGSLRISCAASGRIYVYNVMGWSRQAPGKETELVAAISWGTGSTYADSVKGRFTISRDNAKNTVYLQMNSLKPEDTAVYYCAAAADYYYDHDYWGQGTQVTVSS | low polyreactivity
22 | QVQLVESGGGLVQAGGSLRLSCAASGSIFGYYAMGWYRQAPGKERELVAAITRSGGRTYYADSVKGRFTISRDNAKNTVYLQMNSQKPEDTAVYYCATEWLKDRYPYGYWGQGTQVTVSS | high polyreactivity

Row | Sequence | polyreactivity (PSR sort gate)
23 | QVQLVESGGGLVQAGGSLRLSCAASGLIFQVYDMGWYRQAPGKERELVAAISSGSNTNYADSVKGRFTISRDNAKNTVYLQMNSLKPEDTAVYYCAASLGYGAMTPDMGYWGQVTQVTVSS | low polyreactivity
24 | QVQLVESGGGLVQAGGSLRLSCAASGFIFSRNAMGWYRQAPGKEREFVAAISGRGGSTYYADSVKGRFTISRDNAKNTVYVQMNSLKPEDTAVYYCAVYSYGQTYSGYYLGQGTQVTVSS | high polyreactivity
25 | QVQLVESGGGLVQAGGSLRLSCAASGSIFAKYAMGWYRQAPGKEREFVAAIRASGGRTYYADSVKGRFTISRDNAKNTVYLKMNSLKPEDTAFYYCASDVSYRAGFDYWGQGTQVTVSS | high polyreactivity
26 | QVQLVESGGGLVQAGGSLRLSCAASGSTFRFNTMGWYRQAPGKERELVAAITRGGSTNYADSVKGRFTISRDNAKNTVYLQMNSLKPEDTAVYYCNTTRYSVRKYDYWGQGTQVTVSS | low polyreactivity
27 | QVQLVESGGGLVQAGGSLRLSCAASGRTFTRYTMGWYRQAPGKERELVAAIRYSGGSTYYADSVKGRFTISRDNAKNTVYLQMNSLKPEDTAVYYCAARSYYYGFLYRYDYWGQGTQVTVSS | low polyreactivity
28 | QVQLVESGGGLVQAGGSLRLSCAASGGNFWYNTMGWYRQAPWKERELVAAISDSGGRTSYADSVKGRVTISRDNANHTVYLQMNSLKPEDTAVYYCNVDYVVSRGFIYRVDYWGQGTQVTVSS | low polyreactivity
29 | QVQLVESGGGLVQAGGSLRLSCAASGIIFARYAMGWYRQAPGKERELVASINWTGGNTYADSVKGRFTISRDNAKNTVYLQMNSLKPEDTAVYYCARDFCPGSSDPKASISFDHWGQGTQVTVSS | low polyreactivity
30 | QVQLVESGGGLVQAGGSLRLSCAASGFTFKYNAMGWYRQAPGKERELVASISSGSTNYADSVKGRFTISRDNAKNTVYLQMNSLKPEDTAVYYCSASVSRGKRFRYGYVFKMDYWGQGTQVTVSS | low polyreactivity
31 | QFQLVESGGGLVQAGGSLRLSCAASGRTFVYYVMGWYRPAPGKERELVAAISRRGGSTYYADSVKGRFTISRDNAKNTVYLQMNSLKPEDTAVYYCAAQYYYAREDYWGQGTQVTVSS | high polyreactivity
32 | QVQLVESGGGLVQAGGSLRLSCAASGITFSSYAMGWYRQAPGTEREFVARISTDADTYYADSVKGRFTISRDNAKHTVLLQMNSLKPEDTAVYYCAAEDYRDFDYWGHGTQVTVSS | low polyreactivity
33 | QVQLVESGGGLVQAGGSLRLSCAASGLIFWLNAMGWYRQAPGKERELVATITAGGDDTNYADSVKGRFTISRDNAKNTVYLQMNSLKPEDTAVYYCAKSRTRSGHYGYDYWGQGTQVTVSS | low polyreactivity
34 | QVQLVESGGGLVQAGGSLRLSCAASGIIFDYNAMGWYRQAPGKERELVASIDSGGSTNYADSVKGRFTISRDNAKNTVYLQMNSLKPEDTAVYYSNADDTTVSPWYYYYQSYYWGQGTQVTVSS | low polyreactivity
35 | QVQLVESGGGLDQAGGSLRLSCAASGNIFVEYAMGWYSQAPGKERELVAAITNSGGRTHYADSVKGRFTISRDNAKNTGSLQMNSRKPEDTAVFYCAAPTKYRSRRYYWGQGTQVSVSS | high polyreactivity
36 | QVQLVESGGGLVQAGGSLRLSCAASGFTFNGYARGWYRQAPGKDRELVATMTNGGSTYYADSVKGRFTISRDNAKNTVYLQMNSLKPEDTAVYYCAAESEQATPGYLAPLFDYWGQGTQVTVSS | low polyreactivity
37 | QVQLVESGGGLVQAGGSLRLICAASGITFWYYAMGWSRQEPGKERELVAAITRRGRTNYADSVKGRFTISRDNAKNTVYLQMNSLKPEVTAVYYCAVDLYSFSPRYYYWGQGTQVSVSS | low polyreactivity
38 | QVQLVESGGGLVQAGGSLRLSCAASGSIFPVYAMGWYRQAPGKERELVAAINSSGGTTYYADSVKGRFTISRDNAKNTVYLQMNSLKPEDTAVYYCAAEISTASYFAKTYDYWGQGTQVTVSS | low polyreactivity
39 | QVQLVESGGGLDQAGGSLRLSCAASGLTFYTYAMGWYRQAPGTERELVAAIRWRGGRTYYADSVKGRFTISRDNAKNTVYLQMNSLKPEDTAVYYCAADYSTLYKYDYWGQGTQVTVSS | low polyreactivity
40 | QVHLVESGGGLVQAGGSLRLSCAASGIIFYANVMGWYRQAPGKERELVAGISRNGGRTYYADSVKGRFTFSRDNAKNTVYLQMICLKPEDTAVYYCAARGSYTSIFDYWGQGTQVTVSS | high polyreactivity
41 | QVQLVESGGGLVQAGGSLRLSCAASGFTFYANAMGWYRQAPGKERELVAAIDQSGTSTNYADSVKGRFTISRDNAKNTVYLQMNSLKPEDTAVYYCAADSSFYYYPLILFWGDYWGQGTQVTVSS | low polyreactivity
42 | QVQLVESGGGLVQAGGSLRLSCAASGSIFWVYAMGWYRQAPGKERELVAAISNRGGSTYYSDSVKGRFTISRDNAKITVYLQMNSLKPEDTAVYYCAAVVAHHYYWGQGTQVTVSS | high polyreactivity
43 | QVQLVESGGGLVQAGGSLRLSCAASGSIFGVNAMGWYRQAPGKERELVASITGGDSTNYADSVKGRFTISRDNAKNTVYLQMNSLKPEDSAVYYCAKDHYYRYEEGDYWGQGTQVTVSS | low polyreactivity

— the nanobody polyreactivity screen of Harvey et al. (2022)
